According to patent US20040106148A1, “Polypeptides” (priority 2000, published 2004):

B1: C-terminal PH domain of TAPP2: GST fusion of isolated C-terminal PH domain of mouse TAPP2, residues 174 to 425 (protein, UniProt Q9ERS5 174-425, looked up, fragment)
chain: GTHAFLRRSQSYIPTSGCRPSTGPPLIKSGYCVKQGNVRKSWKRRFFALDDFTICYFKCEQDREPLRTIPLKDVLKTHECLVKSGDLLMRDNLFEIITTSRTFYVQADSPEDMHSWIEGIGAAVQALKCHPREPSFSRSISLTRPGSSTLTSAPNSILSRRRPPAEEKRGLCKAPSVASSWQPWTPVPQAEEKPLSVEHAPEDSLFMPNPGESTATGVLASSRVRHRSEPQHPKEKPFVFNLDDENIRTSDV
modifications: C-terminal PH domain GST fusion
B2: NT-PH TAPP1: GST fusion of isolated N-terminal PH domain of human TAPP1, residues 1 to 147 (protein, UniProt Q9HB21 1-147, looked up, fragment)
chain: MPYVDRQNRICGFLDIEENENSGKFLRRYFILDTREDSFVWYMDNPQNLPSGSSRVGAIKLTYISKVSDATKLRPKAEFCFVMNAGMRKYFLQANDQQDLVEWVNVLNKAIKITVPKQSDSQPNSDNLSRHGECGKKQVSYRTDIVG
modifications: N-terminal PH domain GST fusion
B3: FAPP1: GST fusion of the PH domain of human FAPP1 (residues 1 to 99), PtdIns-Four-phosphate AdaPtor Protein-1, expressed in E. coli (protein, UniProt Q9HB20 1-99, looked up, fragment)
chain: MEGVLYKWTNYLTGWQPRWFVLDNGILSYYDSQDDVCKGSKGSIKMAVCEIKVHSADNTRMELIIPGEQHFYMKAVNAAERQRWLVALGSSKACLTDTR
modifications: PH domain GST fusion
notes: GST fusion of the PH domain of human FAPP1 (residues 1 to 99), PtdIns-Four-phosphate AdaPtor Protein-1, expressed in E. coli
B4: N-terminal PH domain of TAPP2: GST fusion of isolated N-terminal PH domain of mouse TAPP2, residues 1 to 131 (protein, UniProt Q9ERS5 1-131, looked up, fragment)
chain: MPYVDRQNRICGFLDIEDNENSGKFLRRYFILDTQANCLLWYMDNPQNLAVGAGAVGSLQLTYISKVSIATPKQKPKTPFCFVINALSQRYFLQANDQKDLKDWVEALNQASKITVPKAGTVPLATEVLKN
modifications: N-terminal PH domain GST fusion
B5: PH domain of mouse centaurin-β2: GST fusion of mouse centaurin-β2 residues 266 to 390, expressed in 293 cells (protein, UniProt Q6ZQK5 266-390, looked up, fragment)
chain: GIVMEGYLFKRASNAFKTWNRRWFSIQNNQLVYQKKFKDSPTVVVEDLRLCTVKHCEDIERRFCFEVVSPTKSCMLQADSEKLRQAWIKAVQTSIATAYREKGDESEKLDKKSSPSTGSLDSGNE
modifications: PH domain GST fusion
notes: GST fusion of mouse centaurin-β2 residues 266 to 390, expressed in 293 cells
B6: CT-PH TAPP1: GST fusion of isolated C-terminal PH domain of human TAPP1, residues 95 to 404 (protein, UniProt Q9HB21 95-404, looked up, fragment)
chain: NDQQDLVEWVNVLNKAIKITVPKQSDSQPNSDNLSRHGECGKKQVSYRTDIVGGVPIITPTQKEEVNECGESIDRNNLKRSQSHLPYFTPKPPQDSAVIKAGYCVKQGAVMKNWKRRYFQLDENTIGYFKSELEKEPLRVIPLKEVHKVQECKQSDIMMRDNLFEIVTTSRTFYVQADSPEEMHSWIKAVSGAIVAQRGPGRSASSEHPPGPSESKHAFRPTNAATATSHSTASRSNSLVSTFTMEKRGFYESLAKVKPGNFKVQTVSPREPASKVTEQALLRPQSKNGPQEKDCDLVDLDDASLPVSDV
modifications: C-terminal PH domain GST fusion
B7: evectin-2: GST fusion of human evectin-2 residues 1 to 167 (protein, UniProt Q96CS7 1-167, looked up, fragment)
chain: MAFVKSGWLLRQSTILKRWKKNWFDLWSDGHLIYYDDQTRQNIEDKVHMPMDCINIRTGQECRDTQPPDGKSKDCMLQIVCRDGKTISLCAESTDDCLAWKFTLQDSRTNTAYVGSAVMTDETSVVSSPPPYTAYAAPAPEQAYGYGPYGGAYPPGTQVVYAANGQA
modifications: GST fusion
B8: pleckstrin-2: GST fusion of mouse pleckstrin-2 residues 1 to 249 (protein, UniProt Q9WV52 1-249, looked up, fragment)
chain: MEDGVLKEGFLVKRGHIVHNWKARWFILRQNTLLYYKLEGGRRVTPPKGRIVLDGCTITCPCLEYENRPLLIKLKTRTSTEYFLEACSREERDSWAFEITGAIHAGQPGKIQQLHILKNSFKLPPHISLHRIVDKMHDTSTGIRPSPNMEQGSTYKKTFLGSSLVDWLISSNFAASRLEAVTLASMLMEENFLRPVGVRSMGAIRSGDLAEQFLDDSTALYTFAESYKKKVSSKEEISLSTMELSGTVV
modifications: GST fusion

Legend:
Format in all cases: binding
[1] = Protein-lipid overlay, panel of phosphoinositides; details: GST fusion protein; for Binding to any other phosphoinositide (than the one bound): FIG. 2; for Interaction with any phosphoinositide tested: FIG. 2 / FIG. 4A
Experimental: (§1) FIG. 2. Phosphoinositide binding properties of the novel PH domains. The ability of the indicated GST fusion proteins to bind a variety of phosphoinositides was analysed using a protein-lipid overlay. Serial dilutions of the indicated phosphoinositides (100 pmol, 50 pmol, 25 pmol, 12.5 pmol, 6.3 pmol, 3.1 pmol and 1.6 pmol) were spotted onto a nitrocellulose membranes which were then incubated with the purified GST fusion proteins. The membranes were washed and the GST-fusion proteins bound to the membrane by virtue of their interaction with lipid were detected using a GST antibody. A representative of at least 3 separate experiments carried out is shown.
FIG. 4. Comparison of the phosphoinositide binding properties of the N-terminal and C-terminal PH domains of TAPP1 and TAPP2. The ability of wild type and mutant forms of full length (FL) and isolated N-terminal (NT) and C-terminal (CT) PH domains of TAPP1 and TAPP2 GST-fusion proteins to interact with phosphoinositides were analysed using a protein-lipid overlay. Serial dilutions of the indicated phosphoinositides (100 pmol, 50 pmol, 25 pmol, 12.5 pmol, 6.3 pmol, 3.1 pmol and 1.6 pmol) were spotted onto a nitrocellulose membrane which was then incubated with the indicated purified GST fusion proteins. The membranes were washed and the GST-fusion proteins bound to the membrane by virtue of their interactions with lipid were detected using a GST antibody. A representative experiment of three is shown. The isolated N-terminal PH domain of human TAPP1 comprises residues 1 to 147, the isolated C-terminal PH domain of human TAPP1 comprises residues 95 to 404, the isolated N-terminal PH domain of mouse TAPP2 comprises residues 1 to 131 and the isolated C-terminal PH of mouse TAPP2 comprises residues 174 to 425.
Protein-Lipid overlay. To assess the phosphoinositide binding properties of each PH domain, a protein-lipid overlay assay was performed using the GST fusion proteins as described previously. Briefly, 1 μl of lipid solution containing 1-100 pmol of phospholipids dissolved in a mixture of choroform:methanol:water (1:2:0.8) was spotted onto Hybond-C extra membrane and allowed to dry at room temperature for 1 h. The membrane was blocked in 3% (by mass) fatty acid-free BSA in TBST (50 mM Tris/HCl pH 7.5, 150 mM NaCl and 0.1% Tween-20 (by vol) for lh. The membrane was then incubated overnight at 4° C. with gentle agitation in the same solution containing 0.2 μg/ml of the indicated GST fusion protein. The membranes were washed 6 times over 30 min in TBST and then incubated for 1 h with 1/1000 dilution of anti-GST monoclonal antibody (Sigma). The membranes were washed as before, then incubated for 1 h with 1/5000 dilution of anti-mouse-HRP conjugate (Pierce). Finally, the membranes were washed 12 times over 1 h in TBST and the GST-fusion protein bound to the membrane by virtue of its interaction with phospholipid was detected by enhanced chemiluminescence.
We studied the specificity and affinity of interaction of the PH domains for phosphoinositide lipids using either a “protein-lipid overlay” assay (FIG. 2) or the more quantitative surface plasmon resonance based approach (Table 2). For the protein-lipid overlay assay, serial dilutions of phosphoinositides were spotted on to a nitrocellulose membrane and incubated with the indicated GST PH domain fusion protein or GST-DAPP1 (that binds PtdIns(3,4,5)P3 and PtdIns(3,4)P2 [4]), GST-GRP1 (that binds only PtdIns(3,4,5)P3 [8]) and GST-phospholipase Cδ1 (that binds only PtdIns(4,5)P2 (Ferguson et al (1995) Cell 83, 1037-1046)) as controls. The membranes were then washed and immunoblotted with a GST antibody to detect GST fusion proteins bound to the membrane by virtue of their interaction with lipid. […]

Protein-lipid overlay [2] = details: GST fusion protein, lipid spotted 1.6-100 pmol on membrane, FIG. 2 / FIG. 4
Experimental: as §1
FIG. 4. […] The ability of wild type and mutant forms of full length (FL) and isolated N-terminal (NT) and C-terminal (CT) PH domains of TAPP1 and TAPP2 GST-fusion proteins to interact with phosphoinositides were analysed using a protein-lipid overlay. […] The membranes were washed and the GST-fusion proteins bound to the membrane by virtue of their interactions with lipid were detected using a GST antibody. […]
We studied the specificity and affinity of interaction of the PH domains for phosphoinositide lipids using either a “protein-lipid overlay” assay (FIG. 2) or the more quantitative surface plasmon resonance based approach (Table 2). […]

Protein-lipid overlay [3] = details: GST fusion protein, dipalmitoyl lipid spotted on membrane, FIG. 2
Experimental: as §1
(§2) Protein-Lipid overlay. To assess the phosphoinositide binding properties of each PH domain, a protein-lipid overlay assay was performed using the GST fusion proteins as described previously. […]
(§3) We studied the specificity and affinity of interaction of the PH domains for phosphoinositide lipids using either a “protein-lipid overlay” assay (FIG. 2) or the more quantitative surface plasmon resonance based approach (Table 2). […] For the surface plasmon resonance based assay, the apparent Kd values of the GST PH domain fusion proteins resulting from their interaction with a supported lipid monolayer containing a low mole fraction of phosphoinositide, was determined (Table 2).

Protein-lipid overlay [4] = details: GST fusion protein, lipid spotted on membrane, FIG. 2 / FIG. 11
Experimental: as §1
Methods used are equivalent to those specified in the legend to FIG. 2.
as §2, §3

Row | Molecule | Binding to any other phosphoinositide (than the one bound) [1] | Interaction with any phosphoinositide tested [1] | further results
1 | B1 | did not bind | – | Interaction with PtdIns(3,4)P2 (Protein-lipid overlay [2]): interacted with PtdIns(3,4)P2; Interaction with PtdIns(3,4,5)P3 (Protein-lipid overlay [3]): did not bind
2 | B2 | – | failed to interact | –
3 | B3 | did not bind | – | Interaction with PtdIns4P (Protein-lipid overlay [4]): high affinity
4 | B4 | – | failed to interact | –
5 | B5 | did not bind | – | –
6 | B6 | did not bind | – | Interaction with PtdIns(3,4)P2 (Protein-lipid overlay [2]): interacted with PtdIns(3,4)P2; Interaction with PtdIns(3,4,5)P3 (Protein-lipid overlay [3]): did not bind
7 | B7 | interacted more weakly | – | –
8 | B8 | – | interacted with several phosphoinositides | –
